Measured values published in PMC10245715 (bioRxiv, 2023).

Biological target: p97 (valosin-containing protein, VCP), full-length, wildtype, human (human, UniProt P55072 1-806)
Experiment: SEC

Sequence of p97 (valosin-containing protein, VCP), full-length, wildtype, human (P55072 whole entry): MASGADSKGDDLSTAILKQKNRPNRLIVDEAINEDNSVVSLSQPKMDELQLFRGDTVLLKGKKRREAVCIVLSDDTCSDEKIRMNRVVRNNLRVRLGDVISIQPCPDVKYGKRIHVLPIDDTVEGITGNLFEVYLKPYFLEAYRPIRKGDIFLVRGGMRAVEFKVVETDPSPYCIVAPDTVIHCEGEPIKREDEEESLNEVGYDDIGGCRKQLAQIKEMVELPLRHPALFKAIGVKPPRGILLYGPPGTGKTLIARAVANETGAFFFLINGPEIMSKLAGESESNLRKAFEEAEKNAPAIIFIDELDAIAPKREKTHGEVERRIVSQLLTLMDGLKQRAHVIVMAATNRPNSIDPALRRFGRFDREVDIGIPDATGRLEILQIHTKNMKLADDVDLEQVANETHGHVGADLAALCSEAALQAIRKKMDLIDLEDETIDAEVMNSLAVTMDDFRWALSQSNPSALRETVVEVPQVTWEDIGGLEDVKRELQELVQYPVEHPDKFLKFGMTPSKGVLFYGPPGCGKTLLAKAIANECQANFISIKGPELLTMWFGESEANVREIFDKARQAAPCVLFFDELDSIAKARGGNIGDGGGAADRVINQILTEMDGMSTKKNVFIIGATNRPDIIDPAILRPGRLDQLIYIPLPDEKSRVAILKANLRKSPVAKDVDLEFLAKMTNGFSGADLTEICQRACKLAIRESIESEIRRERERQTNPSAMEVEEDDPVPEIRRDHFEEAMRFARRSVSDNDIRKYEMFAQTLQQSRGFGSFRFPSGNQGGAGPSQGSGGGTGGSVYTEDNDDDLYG

B1: UBXD1 double mutant containing both the lariat and H4 changes, full-length (natural protein)
chain: MKKFFQEFKADIKFKSAGPGQKLKESVGEKAHKEKPNQPAPRPPRQGPTNEAQMAAAAALARLEQKQSRAWGPTQSRDVTQERIQNKAVLTEASGSPEAPGTNVVSEPREEGSAHLAVPGVYFTCPLTGATLRKDQRDACIKEAILLHFSTDPVAASIMKIYTFNKDQDRVKLGVDTIAKYLDNIHLHPEEEKYRKIKLQNKVFQERINCLEGTHEFFEAIGFQKVLLPAQDQEDPEEFYVLSETTLAQPQSLERHKEQLLAAEPVRAKLDRQRRVFQPSPLASQFELPGDFFNLTAERIKEEQRLESEAVRRLSVLRTKAMREKEEQRGLRKYNYTLLRVRLPDGCLLQGTFYARERLGAVYGFVREALQSDWLPFELLASGGQKLSEDENLALNECGLVPSALLTFSWDMAVLEDIKAAGAEPDSILKPELLSAIEKLL
binding result: binds
